Data: patent US20250002594A1 (SHANGHAI EPIMAB BIOTHERAPEUTICS, published 2025)

What was measured:
[1] = molecular target: T1, human CD122 on HEK293 cells (human, UniProt P14784 27-551); assay: Flow cytometry (MFI) on HEK293 cells overexpressing human CD122; the table gives no unit, the axis is Fab conc.(nM)
T1 construct: whole, on cells; also called cell surface CD122
T1 sequence (looked up): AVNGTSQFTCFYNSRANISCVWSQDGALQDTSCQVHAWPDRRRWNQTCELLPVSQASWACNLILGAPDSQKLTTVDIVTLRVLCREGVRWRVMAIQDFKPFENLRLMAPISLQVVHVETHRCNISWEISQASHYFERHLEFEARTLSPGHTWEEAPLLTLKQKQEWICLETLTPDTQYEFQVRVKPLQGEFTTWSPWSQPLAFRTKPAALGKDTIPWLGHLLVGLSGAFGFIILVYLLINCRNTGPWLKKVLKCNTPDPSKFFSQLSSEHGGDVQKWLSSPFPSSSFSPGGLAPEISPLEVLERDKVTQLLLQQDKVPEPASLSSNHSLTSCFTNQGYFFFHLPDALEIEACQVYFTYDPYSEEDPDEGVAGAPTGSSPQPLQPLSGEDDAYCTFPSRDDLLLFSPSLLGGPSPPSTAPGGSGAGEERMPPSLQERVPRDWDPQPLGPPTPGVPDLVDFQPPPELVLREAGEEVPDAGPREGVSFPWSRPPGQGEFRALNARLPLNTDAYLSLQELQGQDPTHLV
Experimental: (§1) Briefly, a 96-well plate was seeded with 3×10⁵ cells each well, centrifuged at 400 g for 5 minutes and supernatants discarded, then added 100 μl of antibody (5× serial dilutions, 0.0064 to 100 nM) each well and gently mixed. After 60 minutes of incubation at 4° C., plates were washed several times to remove excess antibodies. Secondary fluorochrome-conjugated goat anti-human IgG antibody (Jackson Immunoresearch, Cat No. 109-606-098) was then added and incubated with cells at 4° C. for 20 minutes. After another round of centrifugation and washing, cells were resuspended in assay buffer (1X PBS containing 2% FBS) for reading on a flow-cytometer. Median Fluorescence Intensity (MFI) readouts were plotted against antibody concentration and analyzed with GraphPad Prism 6.0 software.

[2] = molecular target: T2, human CD132 on HEK293 cells (human, UniProt P31785 23-369); assay: Flow cytometry (MFI) on HEK293 cells overexpressing human CD132; the table gives no unit, the axis is Fab conc.(nM)
T2 construct: whole, on cells; also called cell surface CD132
T2 sequence (looked up): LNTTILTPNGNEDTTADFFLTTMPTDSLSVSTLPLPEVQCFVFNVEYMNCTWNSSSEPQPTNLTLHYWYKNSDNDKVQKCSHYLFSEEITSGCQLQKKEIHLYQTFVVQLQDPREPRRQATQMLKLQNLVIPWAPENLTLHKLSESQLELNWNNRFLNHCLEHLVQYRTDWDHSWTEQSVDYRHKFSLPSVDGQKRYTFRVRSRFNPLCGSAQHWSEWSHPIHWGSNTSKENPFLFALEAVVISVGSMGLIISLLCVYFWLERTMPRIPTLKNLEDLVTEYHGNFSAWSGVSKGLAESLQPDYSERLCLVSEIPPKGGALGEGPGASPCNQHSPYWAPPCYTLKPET
Experimental: as §1

recombinant human CD132 = molecular target: T3, recombinant human CD132 (human, UniProt P31785 23-262, limits assumed); assay: GCI (WAVEsystem)
T3 construct: also called IL-2Rγ
T3 sequence (looked up): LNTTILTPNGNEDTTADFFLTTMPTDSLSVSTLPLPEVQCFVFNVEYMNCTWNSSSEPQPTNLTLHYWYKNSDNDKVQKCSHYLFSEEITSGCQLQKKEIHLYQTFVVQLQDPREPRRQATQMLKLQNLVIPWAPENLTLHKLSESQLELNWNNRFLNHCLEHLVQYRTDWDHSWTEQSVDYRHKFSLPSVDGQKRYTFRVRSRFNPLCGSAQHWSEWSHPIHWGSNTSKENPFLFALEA
Experimental: Binding affinity and kinetics constants of humanized CD122/CD132 FIT-Ig were determined using a label-free biosensor on WAVEsystem (Creoptix AG, Switzerland) by grating-coupled interferometry (GCI). Briefly, a PCP WAVEchip (Creoptix AG) was pre-immobilized with goat anti-human IgG Fc antibody to a density of 3830 pg/mm² by amine coupling, and used to capture humanized CD122/CD132 FIT-Ig generated from Example 3.2.1 to a density of ˜90 pg/mm², then exposed to recombinant human/cyno CD122 or CD132 serially diluted (3× dilutions from 200 nM to […] for human CD122, human CD132 and cyno CD132, respectively; and from 1000 nM to 1.37 nM for cyno CD122) in 1X HBS-EP+ buffer (Cytiva, Cat No. BR100669) by injection at 60 μL/min for 250s to assess association, followed by 1200s dissociation. After each round of association and dissociation, WAVEchip surface was regenerated by subject to pH 1.5 Glycine-HCl buffer injection at 60 μL/min for 120s. Sensorgrams were recorded at 25° C., the data were analyzed on WAVEcontrol (Creoptix AG) and double referenced by subtracting the signals from blank injections and the reference channel. A Langmuir 1:1 model was used for data fitting.

[3] = molecular target: T4, CD122/CD132 complex on HEK-Blue IL-2 cells (UniProt P14784 27-551; P31785 23-369, limits assumed); assay: cell-based or functional assay
T4 sequence (looked up) 1: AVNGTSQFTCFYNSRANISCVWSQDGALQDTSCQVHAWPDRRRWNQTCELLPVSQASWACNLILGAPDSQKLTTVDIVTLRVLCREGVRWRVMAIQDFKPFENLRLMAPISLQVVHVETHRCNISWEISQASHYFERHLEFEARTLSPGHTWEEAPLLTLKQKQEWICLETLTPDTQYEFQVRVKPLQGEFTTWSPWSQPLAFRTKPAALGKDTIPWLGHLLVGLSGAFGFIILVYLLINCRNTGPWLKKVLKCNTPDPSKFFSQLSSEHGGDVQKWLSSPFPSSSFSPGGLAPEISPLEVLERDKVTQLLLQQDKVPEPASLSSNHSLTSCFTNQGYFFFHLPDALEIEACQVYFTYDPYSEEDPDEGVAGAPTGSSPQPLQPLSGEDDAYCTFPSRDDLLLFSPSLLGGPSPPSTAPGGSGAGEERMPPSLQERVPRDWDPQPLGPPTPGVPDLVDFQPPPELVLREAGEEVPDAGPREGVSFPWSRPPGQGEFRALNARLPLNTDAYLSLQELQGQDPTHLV
T4 sequence (looked up) 2: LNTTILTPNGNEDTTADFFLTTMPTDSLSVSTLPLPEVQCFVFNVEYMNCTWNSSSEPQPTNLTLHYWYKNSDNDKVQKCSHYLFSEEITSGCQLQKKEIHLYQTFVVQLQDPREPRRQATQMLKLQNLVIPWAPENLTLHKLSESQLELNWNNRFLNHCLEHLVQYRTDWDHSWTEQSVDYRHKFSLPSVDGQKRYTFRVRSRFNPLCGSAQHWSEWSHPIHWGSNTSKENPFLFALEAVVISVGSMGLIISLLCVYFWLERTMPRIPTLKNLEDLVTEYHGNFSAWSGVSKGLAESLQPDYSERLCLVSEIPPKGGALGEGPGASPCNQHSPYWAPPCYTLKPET

Binder	EC50 [1] [nM]	EC50 [2] [nM]	binding result (recombinant human CD132)	EC50 from SEAP reporter gene assay [3] [nM]
Duo2019-86b (bispecific antibody, human IgG1, kappa, L234A L235A, 1+1 asymmetric IgG1 made by Fab-arm exchange; printed both as Duo2019-86 and Duo2019-86b) heavy 1: EVQLQQPGSELVRPGASVKLSCKASGYTFTSYWMHWMKQRPGQGLEWIGHIYLGGGATNYAEKFRSKATLTADTSSSTAYMQLSSLTSEDSAVYYCTRSQPYYYGMDSWGQGTSVTVSSASTKGPSVFPLAPSSKSTSGGTAALGCLVKDYFPEPVTVSWNSGALTSGVHTFPAVLQSSGLYSLSSVVTVPSSSLGTQTYICNVNHKPSNTKVDKKVEPKSCDKTHTCPPCPAPEAAGGPSVFLFPPKPKDTLMISRTPEVTCVVVDVSHEDPEVKFNWYVDGVEVHNAKTKPREEQYNSTYRVVSVLTVLHQDWLNGKEYKCKVSNKALPAPIEKTISKAKGQPREPQVYTLPPSREEMTKNQVSLTCLVKGFYPSDIAVEWESNGQPENNYKTTPPVLDSDGSFLLYSKLTVDKSRWQQGNVFSCSVMHEALHNHYTQKSLSLSPGK light 1: DIQMTQTPSSLSASLGDRVTISCRASQDISNYLNWYQQKPDGTVKLLIYYKSRLHSGVPSRFSGSGSGTEYSLTINNLEQEDFATYFCHQGHTIPFTFGSGTKLEIKRTVAAPSVFIFPPSDEQLKSGTASVVCLLNNFYPREAKVQWKVDNALQSGNSQESVTEQDSKDSTYSLSSTLTLSKADYEKHKVYACEVTHQGLSSPVTKSFNRGEC heavy 2: QVQLQQSGPELVKPGASVKMSCKASGYRFSDYVISWVKQRSGQGLEWIGEIYPGDGNTYYNEMFKGRATLTADKSPNTAYMKLSSLTSEDSALYFCARGSYTYDNYAMDFWGQGTSVTVSSASTKGPSVFPLAPSSKSTSGGTAALGCLVKDYFPEPVTVSWNSGALTSGVHTFPAVLQSSGLYSLSSVVTVPSSSLGTQTYICNVNHKPSNTKVDKKVEPKSCDKTHTCPPCPAPEAAGGPSVFLFPPKPKDTLMISRTPEVTCVVVDVSHEDPEVKFNWYVDGVEVHNAKTKPREEQYNSTYRVVSVLTVLHQDWLNGKEYKCKVSNKALPAPIEKTISKAKGQPREPQVYTLPPSREEMTKNQVSLTCLVKGFYPSDIAVEWESNGQPENNYKTTPPVLDSDGSFFLYSRLTVDKSRWQQGNVFSCSVMHEALHNHYTQKSLSLSPGK light 2: DVLMTQTPLSLPVSLGDQASISCRSSQNIVHSNGNTYLEWYLQKPGQSPKLLIYKVSNRFSGVPDRFSGSGSGTDFTLKISRVEAEDLGLYYCFQGSHIPWTFGGGTKLEIKRTVAAPSVFIFPPSDEQLKSGTASVVCLLNNFYPREAKVQWKVDNALQSGNSQESVTEQDSKDSTYSLSSTLTLSKADYEKHKVYACEVTHQGLSSPVTKSFNRGEC	1.63	11.4		
huFIT2019-86b-50 (bispecific antibody, human IgG1, kappa, L234A L235A) chain 1: not shown chain 2: EVQLVQSGAEVKKPGASVKVSCKASGYTFTDYVISWVRQATGQGLEWMGEIYPGDGNTYYNEMFKGRVTMTRDTSISTAYMELSSLRSEDTAVYYCARGSYTYDNYAMDFWGQGTTVTVSSASTKGPSVFPLAPSSKSTSGGTAALGCLVKDYFPEPVTVSWNSGALTSGVHTFPAVLQSSGLYSLSSVVTVPSSSLGTQTYICNVNHKPSNTKVDKKVEPKSC chain 3: not shown			binds	0.286
